Laboratory results from patent US20240209114A1 (JIANGSU HENGRUI PHARMACEUTICALS, published 2024).
Where two headings read alike, the source gives them in different places.

How the values were obtained:
MASP2 in human serum [1] = target: T1, MASP2 in human serum (human, UniProt O00187 16-686); experiment: cell-based or functional assay
[2] = target: T2, Murine MASP2A (S632A) protein (murine, UniProt Q91WP0 16-685); experiment: SPR (Biacore 8K), antibody captured on anti-human Fc chip, antigen as analyte
Protocol: (§1) The binding properties of the anti-MASP2 antibodies were determined by the method of Biacore. […] An anti-human Fc IgG capture chip was used to capture the antibodies, then antigens with different concentrations were used as a mobile phase for the determination, and finally curve fitting was performed according to a 1:1 mode to obtain affinity values.

[3] = target: Monkey MASP2A (S633A) protein (monkey, UniProt O00187 16-686 (human entry)); experiment: SPR (Biacore 8K), antibody captured on anti-human Fc chip, antigen as analyte, 1:1 fit
Protocol: as §1

[4] = target: T3, Human MASP2A (S633A) protein (human, UniProt O00187 16-686); experiment: as above
T3 construct: also called human enzymatic mutant human MASP2A (S633A)
Protocol: as §1

MASP2 in human serum [5] = target: T1, MASP2 in human serum; experiment: cell-based or functional assay; remark: listed apart in the source
MASP2 in monkey serum = MASP2 in monkey serum (monkey); experiment: cell-based or functional assay
MASP2 in human serum [6] = target: T1, MASP2 in human serum; experiment: cell-based or functional assay; remark: listed apart in the source
MASP2 in human serum [7] = target: T1, MASP2 in human serum; experiment: cell-based or functional assay; remark: listed apart in the source
[8] = target: T2, Murine MASP2A (S632A) protein; experiment: SPR (Biacore 8K), antibody captured on anti-human Fc chip, antigen as analyte, 1:1 fit
Protocol: as §1

MASP2 in mouse serum = MASP2 in mouse serum (mouse, UniProt Q91WP0 20-685); experiment: cell-based or functional assay
Chain of MASP2 in mouse serum (Q91WP0 20-685 limits assumed): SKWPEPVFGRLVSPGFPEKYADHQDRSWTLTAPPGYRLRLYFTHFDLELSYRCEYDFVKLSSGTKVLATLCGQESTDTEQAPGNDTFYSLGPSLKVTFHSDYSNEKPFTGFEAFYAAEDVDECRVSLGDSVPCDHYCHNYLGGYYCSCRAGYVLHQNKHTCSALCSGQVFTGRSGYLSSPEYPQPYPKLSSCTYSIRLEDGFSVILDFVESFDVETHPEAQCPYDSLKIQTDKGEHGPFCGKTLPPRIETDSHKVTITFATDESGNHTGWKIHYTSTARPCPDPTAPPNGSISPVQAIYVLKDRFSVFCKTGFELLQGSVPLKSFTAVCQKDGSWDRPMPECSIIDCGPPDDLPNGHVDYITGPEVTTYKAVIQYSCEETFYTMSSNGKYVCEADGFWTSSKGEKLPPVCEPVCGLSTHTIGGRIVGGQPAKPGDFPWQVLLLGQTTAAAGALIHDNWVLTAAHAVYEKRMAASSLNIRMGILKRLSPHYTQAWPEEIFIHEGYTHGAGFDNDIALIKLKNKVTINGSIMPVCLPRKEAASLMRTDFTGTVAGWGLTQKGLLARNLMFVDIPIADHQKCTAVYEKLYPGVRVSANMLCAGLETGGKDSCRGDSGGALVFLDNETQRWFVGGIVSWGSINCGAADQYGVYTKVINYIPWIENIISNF

Chain of Monkey MASP2A (S633A) protein (O00187 other isoform, or with tags, fused parts or gaps S633A S633A): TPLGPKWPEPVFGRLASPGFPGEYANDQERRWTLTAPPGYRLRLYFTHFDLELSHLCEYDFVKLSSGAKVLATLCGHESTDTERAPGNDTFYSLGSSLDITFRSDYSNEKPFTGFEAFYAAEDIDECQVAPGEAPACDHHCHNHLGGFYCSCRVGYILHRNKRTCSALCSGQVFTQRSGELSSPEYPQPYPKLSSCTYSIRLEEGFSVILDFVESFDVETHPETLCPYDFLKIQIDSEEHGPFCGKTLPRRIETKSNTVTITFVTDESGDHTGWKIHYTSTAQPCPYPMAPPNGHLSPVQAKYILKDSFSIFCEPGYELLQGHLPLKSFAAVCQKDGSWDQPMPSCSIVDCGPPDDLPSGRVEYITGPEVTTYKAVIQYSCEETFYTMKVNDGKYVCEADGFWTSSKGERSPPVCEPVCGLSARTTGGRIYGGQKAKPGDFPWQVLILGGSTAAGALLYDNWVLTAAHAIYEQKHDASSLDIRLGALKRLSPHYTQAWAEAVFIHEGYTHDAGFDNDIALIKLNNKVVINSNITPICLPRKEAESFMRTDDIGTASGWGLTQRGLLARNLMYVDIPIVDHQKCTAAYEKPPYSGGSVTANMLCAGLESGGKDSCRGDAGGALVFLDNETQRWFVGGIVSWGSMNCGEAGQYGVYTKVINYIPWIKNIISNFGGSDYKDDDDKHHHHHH
T2 sequence (Q91WP0 other isoform, or with tags, fused parts or gaps S632A S632A): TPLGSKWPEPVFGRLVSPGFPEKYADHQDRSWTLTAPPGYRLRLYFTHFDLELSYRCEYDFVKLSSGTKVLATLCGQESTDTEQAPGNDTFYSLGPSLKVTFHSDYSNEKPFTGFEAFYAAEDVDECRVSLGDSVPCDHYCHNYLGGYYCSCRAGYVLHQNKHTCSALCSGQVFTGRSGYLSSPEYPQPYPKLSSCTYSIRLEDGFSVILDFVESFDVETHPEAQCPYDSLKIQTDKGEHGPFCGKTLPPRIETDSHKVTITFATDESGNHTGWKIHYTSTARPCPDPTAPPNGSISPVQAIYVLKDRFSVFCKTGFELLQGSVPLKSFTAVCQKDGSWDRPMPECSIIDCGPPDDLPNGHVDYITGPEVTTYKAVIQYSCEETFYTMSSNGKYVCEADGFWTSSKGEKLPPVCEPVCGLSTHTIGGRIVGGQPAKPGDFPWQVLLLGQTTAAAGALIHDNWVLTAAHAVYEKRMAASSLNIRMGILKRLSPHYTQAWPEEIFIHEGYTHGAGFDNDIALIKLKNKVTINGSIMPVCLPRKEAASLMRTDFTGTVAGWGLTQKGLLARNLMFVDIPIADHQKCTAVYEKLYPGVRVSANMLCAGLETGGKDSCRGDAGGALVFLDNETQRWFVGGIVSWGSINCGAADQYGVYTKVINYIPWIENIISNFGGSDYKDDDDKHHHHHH
T1 sequence (O00187 16-686 limits assumed): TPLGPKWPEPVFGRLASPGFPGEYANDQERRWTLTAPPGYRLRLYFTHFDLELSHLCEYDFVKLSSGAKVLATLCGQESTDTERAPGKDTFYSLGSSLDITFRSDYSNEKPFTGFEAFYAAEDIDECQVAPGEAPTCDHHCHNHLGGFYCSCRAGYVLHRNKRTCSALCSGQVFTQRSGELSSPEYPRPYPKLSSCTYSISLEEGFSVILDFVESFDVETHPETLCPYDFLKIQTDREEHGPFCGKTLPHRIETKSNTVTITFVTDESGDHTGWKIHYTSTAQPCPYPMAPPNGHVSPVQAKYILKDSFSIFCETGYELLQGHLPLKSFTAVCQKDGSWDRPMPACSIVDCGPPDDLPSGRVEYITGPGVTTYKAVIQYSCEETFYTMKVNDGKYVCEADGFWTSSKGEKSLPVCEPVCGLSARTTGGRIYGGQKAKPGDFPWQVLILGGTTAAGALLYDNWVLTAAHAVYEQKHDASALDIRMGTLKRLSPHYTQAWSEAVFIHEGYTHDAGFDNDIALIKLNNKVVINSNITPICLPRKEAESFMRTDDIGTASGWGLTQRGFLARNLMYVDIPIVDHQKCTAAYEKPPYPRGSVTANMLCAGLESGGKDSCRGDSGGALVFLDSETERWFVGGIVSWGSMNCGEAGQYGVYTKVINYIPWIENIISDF
T3 sequence (O00187 other isoform, or with tags, fused parts or gaps S633A S633A): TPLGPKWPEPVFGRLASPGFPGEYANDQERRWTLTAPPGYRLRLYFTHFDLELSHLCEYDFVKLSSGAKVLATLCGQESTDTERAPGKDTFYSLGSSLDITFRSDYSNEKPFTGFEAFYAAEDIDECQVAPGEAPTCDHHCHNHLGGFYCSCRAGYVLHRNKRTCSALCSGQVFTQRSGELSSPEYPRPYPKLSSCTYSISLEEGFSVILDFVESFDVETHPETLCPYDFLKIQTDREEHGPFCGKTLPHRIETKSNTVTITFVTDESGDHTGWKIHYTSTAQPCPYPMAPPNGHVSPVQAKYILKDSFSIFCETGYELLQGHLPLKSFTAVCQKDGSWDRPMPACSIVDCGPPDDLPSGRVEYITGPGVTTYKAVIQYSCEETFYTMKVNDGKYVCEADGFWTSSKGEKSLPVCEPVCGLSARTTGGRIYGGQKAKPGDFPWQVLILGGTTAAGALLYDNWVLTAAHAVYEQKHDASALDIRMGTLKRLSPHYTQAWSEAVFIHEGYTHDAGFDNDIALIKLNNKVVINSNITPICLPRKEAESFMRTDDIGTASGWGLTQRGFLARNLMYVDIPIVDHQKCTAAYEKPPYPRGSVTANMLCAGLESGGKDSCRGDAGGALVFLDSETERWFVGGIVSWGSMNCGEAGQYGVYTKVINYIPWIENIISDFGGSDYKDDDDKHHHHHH

B1: 29C1 (H1L1) (antibody, human IgG4 S228P, kappa, V domains shown)
VH: EVQLVESGGGLVKPGGSLRLSCAASGFTFSRFALSWVRQAPGKGLEWVSAVSRGGDYTYYPDSMKGRFTISRDNAKNSLYLQMNSLRAEDTAVYYCARHLYGYGHYYAMDYWGQGTTVTVSS
VL: DIQMTQSPSSLSASVGDRVTITCKASQDVNTAVAWYQQKPGKAPKLLIYSASYRYTGVPSRFSGSGSGTDFTFTISSLQPEDIATYYCQQHYSTPYTFGGGTKVEIKR
notes: Humanized 29C1, full-length human IgG4 (S228P); also called 29C1 (HIL1)
IC50 (µg/mL), inhibition of the lectin pathway in 90% human serum (C4c deposition on mannan) (MASP2 in human serum [1]): 0.477 µg/mL | binding result [2]: no binding | Kd [3]: 0.193 nM | koff [3]: 6.83e-05 s⁻¹ | kon [3]: 354000 M⁻¹ s⁻¹ | Kd [4]: 0.0716 nM | koff [4]: 2.94e-05 s⁻¹ | kon [4]: 410000 M⁻¹ s⁻¹ | 90% human serum IC50 (µg/mL), inhibition of the lectin pathway (C4c deposition on mannan) (MASP2 in human serum [5]): 1.18 µg/mL | 90% monkey serum IC50 (µg/mL), inhibition of the lectin pathway (C4c deposition on mannan) (MASP2 in monkey serum): 15.3 µg/mL

B2: 29C1 (H2L1) (antibody, V domains shown)
VH: EVQLVESGGGLVKPGGSLRLSCAASGFTFSRFALSWVRQAPGKGLEWVAAVSRGGDYTYYPDSMKGRFTISRDNAKNSLYLQMNSLRAEDTAVYYCARHLYGYGHYYAMDYWGQGTTVTVSS
VL: DIQMTQSPSSLSASVGDRVTITCKASQDVNTAVAWYQQKPGKAPKLLIYSASYRYTGVPSRFSGSGSGTDFTFTISSLQPEDIATYYCQQHYSTPYTFGGGTKVEIK
IC50 (µg/mL), inhibition of the lectin pathway in 90% human serum (C4c deposition on mannan) (MASP2 in human serum [1]): 0.471 µg/mL

B3: 29C1 (H3L2) (antibody, V domains shown)
VH: EVQLVESGGGLVKPGGSLRLSCAASGFTFSRFALSWVRQAPGKGLEWVAAVSRGGDYTYYPDSMKGRFTISRDNAKNSLYLQMNSLRAEDTAVYYCARHLYGYGHYYAMDYWGQGTTVTVSS
VL: DIVMTQSPSSLSASVGDRVTITCKASQDVNTAVAWYQQKPGKSPKLLIYSASYRYTGVPSRFSGSGSGTDFTFTISSLQPEDIATYYCQQHYSTPYTFGGGTKVEIK
IC50 (µg/mL), inhibition of the lectin pathway in 90% human serum (C4c deposition on mannan) (MASP2 in human serum [1]): 0.515 µg/mL

B4: 29C1 (H1L2) (antibody, V domains shown)
VH: EVQLVESGGGLVKPGGSLRLSCAASGFTFSRFALSWVRQAPGKGLEWVSAVSRGGDYTYYPDSMKGRFTISRDNAKNSLYLQMNSLRAEDTAVYYCARHLYGYGHYYAMDYWGQGTTVTVSS
VL: DIVMTQSPSSLSASVGDRVTITCKASQDVNTAVAWYQQKPGKSPKLLIYSASYRYTGVPSRFSGSGSGTDFTFTISSLQPEDIATYYCQQHYSTPYTFGGGTKVEIK
IC50 (µg/mL), inhibition of the lectin pathway in 90% human serum (C4c deposition on mannan) (MASP2 in human serum [1]): 0.534 µg/mL

B5: 29C1 (H2L2) (antibody, V domains shown)
VH: EVQLVESGGGLVKPGGSLRLSCAASGFTFSRFALSWVRQAPGKGLEWVAAVSRGGDYTYYPDSMKGRFTISRDNAKNSLYLQMNSLRAEDTAVYYCARHLYGYGHYYAMDYWGQGTTVTVSS
VL: DIVMTQSPSSLSASVGDRVTITCKASQDVNTAVAWYQQKPGKSPKLLIYSASYRYTGVPSRFSGSGSGTDFTFTISSLQPEDIATYYCQQHYSTPYTFGGGTKVEIK
IC50 (µg/mL), inhibition of the lectin pathway in 90% human serum (C4c deposition on mannan) (MASP2 in human serum [1]): 0.555 µg/mL

B6: 29C1 (H3L1) (antibody, V domains shown)
VH: EVQLVESGGGLVKPGGSLRLSCAASGFTFSRFALSWVRQAPGKGLEWVAAVSRGGDYTYYPDSMKGRFTISRDNAKNSLYLQMNSLRAEDTAVYYCARHLYGYGHYYAMDYWGQGTTVTVSS
VL: DIQMTQSPSSLSASVGDRVTITCKASQDVNTAVAWYQQKPGKAPKLLIYSASYRYTGVPSRFSGSGSGTDFTFTISSLQPEDIATYYCQQHYSTPYTFGGGTKVEIK
IC50 (µg/mL), inhibition of the lectin pathway in 90% human serum (C4c deposition on mannan) (MASP2 in human serum [1]): 0.526 µg/mL

B7: 29C1 (antibody, V domains shown)
VH: EVQLVESGGGLVKPGGSLKLSCAASGFTFSRFALSWVRQTPEKRLEWVAAVSRGGDYTYYPDSMKGRFTISRDNAMNTLYLQMSSLSSEDTAMYYCARHLYGYGHYYAMDYWGQGTSVTVSS
VL: DIVMTQSHKFMSTSVGDRVSITCKASQDVNTAVAWYQQKPGQSPKLLIYSASYRYTGVPDRFTGSGSGTDFTFTISSVQAEDLAVYYCQQHYSTPYTFGGGTKLEIK
IC50 (µg/mL), inhibition of the lectin pathway in 1% human serum (C4c deposition on mannan) (MASP2 in human serum [6]): 0.086 µg/mL

B8: 77H11 (H3L1) (antibody, human IgG4 S228P, kappa, V domains shown)
VH: EVQLQESGPGLVKPSQTLSLTCTVSGYSITSDYAWNWIRQPPGKGLEWIGYISYSGRTSYNPSLKSRVTISRDTSKNQFSLKLSSVTAADTAVYYCAVLYALDYWGQGTTVTVSS
VL: DIQMTQSPSSLSASVGDRVTITCKASQNVDTNVAWYQQKPGKVPKALIYSASYRYSGVPSRFSGSGSGTDFTLTISSLQPEDVATYYCQQYNSNPLTFGQGTKLEIKR
notes: Humanized 77H11, full-length human IgG4 (S228P); also called 77H1(H3L1); 77H1 (H3L1)
IC50 (µg/mL), inhibition of the lectin pathway in 90% human serum (C4c deposition on mannan) (MASP2 in human serum [1]): 0.624 µg/mL | binding result [2]: no binding | Kd [3]: 0.14 nM | koff [3]: 8.63e-05 s⁻¹ | kon [3]: 616000 M⁻¹ s⁻¹ | 90% human serum IC50 (µg/mL), inhibition of the lectin pathway (C4c deposition on mannan) (MASP2 in human serum [5]): 0.97 µg/mL | 90% monkey serum IC50 (µg/mL), inhibition of the lectin pathway (C4c deposition on mannan) (MASP2 in monkey serum): 21.6 µg/mL

B9: 77H11 (H4L1) (antibody, V domains shown)
VH: EVQLQESGPGLVKPSQTLSLTCTVSGYSITSDYAWNWIRQPPGNKLEWMGYISYSGRTSYNPSLKSRITISRDTSKNQFSLKLSSVTAADTAVYYCAVLYALDYWGQGTTVTVSS
VL: DIQMTQSPSSLSASVGDRVTITCKASQNVDTNVAWYQQKPGKVPKALIYSASYRYSGVPSRFSGSGSGTDFTLTISSLQPEDVATYYCQQYNSNPLTFGQGTKLEIK
IC50 (µg/mL), inhibition of the lectin pathway in 90% human serum (C4c deposition on mannan) (MASP2 in human serum [1]): 0.67 µg/mL

B10: 77H11 (H2L2) (antibody, V domains shown)
VH: EVQLQESGPGLVKPSQTLSLTCTVSGYSITSDYAWNWIRQPPGKGLEWIGYISYSGRTSYNPSLKSRVTISVDTSKNQFSLKLSSVTAADTAVYYCAVLYALDYWGQGTTVTVSS
VL: DIQMTQSPSSLSASVGDRVTITCKASQNVDTNVAWYQQKPGKSPKALIYSASYRYSGVPSRFSGSGSGTDFTLTISSLQPEDVAEYYCQQYNSNPLTFGQGTKLEIK
IC50 (µg/mL), inhibition of the lectin pathway in 90% human serum (C4c deposition on mannan) (MASP2 in human serum [1]): 1.58 µg/mL

B11: 77H11 (H4L2) (antibody, V domains shown)
VH: EVQLQESGPGLVKPSQTLSLTCTVSGYSITSDYAWNWIRQPPGNKLEWMGYISYSGRTSYNPSLKSRITISRDTSKNQFSLKLSSVTAADTAVYYCAVLYALDYWGQGTTVTVSS
VL: DIQMTQSPSSLSASVGDRVTITCKASQNVDTNVAWYQQKPGKSPKALIYSASYRYSGVPSRFSGSGSGTDFTLTISSLQPEDVAEYYCQQYNSNPLTFGQGTKLEIK
IC50 (µg/mL), inhibition of the lectin pathway in 90% human serum (C4c deposition on mannan) (MASP2 in human serum [1]): 0.443 µg/mL

B12: 77H11 (H3L2) (antibody, V domains shown)
VH: EVQLQESGPGLVKPSQTLSLTCTVSGYSITSDYAWNWIRQPPGKGLEWIGYISYSGRTSYNPSLKSRVTISRDTSKNQFSLKLSSVTAADTAVYYCAVLYALDYWGQGTTVTVSS
VL: DIQMTQSPSSLSASVGDRVTITCKASQNVDTNVAWYQQKPGKSPKALIYSASYRYSGVPSRFSGSGSGTDFTLTISSLQPEDVAEYYCQQYNSNPLTFGQGTKLEIK
IC50 (µg/mL), inhibition of the lectin pathway in 90% human serum (C4c deposition on mannan) (MASP2 in human serum [1]): 0.454 µg/mL

B13: 77H11 (antibody, V domains shown)
VH: DVQLQESGPGLVKPSQSLSLTCTVTGYSITSDYAWNWIRQFPGNKLEWMGYISYSGRTSYNPSLKSRISITRDTSKNQFFLQLNSVTTEDTATYYCAVLYALDYWGQGTSVTVSS
VL: DIVMTQSQKFMSTSVGDRVSVTCKASQNVDTNVAWYQQKPGQSPKALIYSASYRYSGVPDRFTGSGSGTDFTLTISDVQSEDLAEYFCQQYNSNPLTFGSGTKLEIK
IC50 (µg/mL), inhibition of the lectin pathway in 1% human serum (C4c deposition on mannan) (MASP2 in human serum [7]): 0.63 µg/mL

B14: 67D2 (antibody, V domains shown)
VH: DVQLQESGPGLVKPSQSLSLTCTVTGYSITSDYAWNWIRQFPGNKLEWMGYISYSGRTSYNPSLKSRISITRDTSKNQFFLQLNSVTTEDTATYYCAILYAMNFWGQGTSVTVSS
VL: DIVMTQSQKFMSTSVGDRVSVTCKASQNVDTNVAWYQQKPGQSPKALIYSASYRFSGVPDRFTGSGSGTDFTLTISNVQSEDLAEYFCQQYNSNPLTFGSGTKLEIK
IC50 (µg/mL), inhibition of the lectin pathway in 1% human serum (C4c deposition on mannan) (MASP2 in human serum [7]): 0.559 µg/mL

B15: 67E8 (antibody, V domains shown)
VH: DVQLQESGPGLVKPSQSLSLTCTVTGYSITSDYAWNWIRQFPGNKLEWMGYISYSGRTSYNPSLKSRISITRDTSKNQFFLQLNSVTTEDTATYYCAILYAMDYWGQGTSVTVSS
VL: DIVMTQSQKFMSTSVGDRVSVTCKASQNVDTNVAWYQQKPGQSPKALIYSASYRYSGVPDRFTGSGSGTDFTLTISNVQSEDLAEYFCQQYNSNPLTFGSGTKLEIK
IC50 (µg/mL), inhibition of the lectin pathway in 1% human serum (C4c deposition on mannan) (MASP2 in human serum [7]): 0.738 µg/mL

B16: OMS721 (antibody, human IgG4 S228P, lambda, V domains shown)
VH: QVTLKESGPVLVKPTETLTLTCTVSGFSLSRGKMGVSWIRQPPGKALEWLAHIFSSDEKSYRTSLKSRLTISKDTSKNQVVLTMTNMDPVDTATYYCARIRRGGIDYWGQGTLVTVSS
VL: QPVLTQPPSLSVSPGQTASITCSGEKLGDKYAYWYQQKPGQSPVLVMYQDKQRPSGIPERFSGSNSGNTATLTISGTQAMDEADYYCQAWDSSTAVFGGGTKLTVLG
notes: Positive control, synthesized according to WO2012151481A; also called narsoplimab; positive control antibody
Kd [8]: 0.233 nM | 90% mouse serum IC50 (µg/mL), inhibition of the lectin pathway (C4c deposition on mannan) (MASP2 in mouse serum): 3.74 µg/mL | 90% monkey serum IC50 (µg/mL), inhibition of the lectin pathway (C4c deposition on mannan) (MASP2 in monkey serum): 26.6 µg/mL
